Assay results from the supplement of paper PMC12783771.
Residue numbers refer to the chain shown, from its start. ± gives the standard deviation of the averaged measurements.

B1: library; numbered along this chain (parent)
chain: MNIQIGELAKRTACPVVTIRFYEQEGLLPPPGRSRGNFRLYGEEHVERLQFIRHCRSLDMPLSDVRTLLSYRKRPDQDCGEVNMLLDEHIRQVESRIGALLELKHHLVELREACSGARPAQSCGILQGLSDCVCDTRGTTAHPSD
B2: library; a variant is named by its letters at X, in order (parent)
chain: B1 chain with D64X, N83X, I90X, K104X, H106X, P143X

Experiments:
[1] = variants of: B1; assay: sfGFP reporter fluorescence (15 h) (µM FITC); higher = higher leak; details: library round: Round 0; ligand: none
How it was run: (§1)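 Values are endpoint sfGFP fluorescence given as µM FITC equivalents. Fluorescence was read at 485/528 nm on a Synergy Neo2, and FITC standard curves were prepared in 50 mM sodium borate pH 8.5. Reactions of 1 μL combined BL21 Star (DE3) PANOx-SP extract, pPbrR-sfGFP reporter, 30 μg/mL GamS and linear PbrR templates (PCR-made, Echo-normalized to 5 nM), with 1 µM lead chloride, 30 µM zinc acetate or no metal, for 15 hr at 30 °C.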

[2] = variants of: B1; assay: sfGFP reporter fluorescence (15 h) (µM FITC); higher = stronger transcriptional activation; details: library round: Round 0
How it was run: as §1

[3] = variants of: B2; assay: sfGFP reporter fluorescence (15 h) (µM FITC); higher = higher leak; details: library round: Round 3b; ligand: none
Experimental: (§2)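 Cell-free biosensing: 1 µL Echo-assembled CFE reactions with linear PbrR variant templates (5 nM) and pPbrR-sfGFP reporter, with 1 µM Pb, 30 µM Zn or no ligand; endpoint sfGFP fluorescence after 15 h at 30 °C calibrated as µM FITC. Round 3b rational combinatorial PbrR mutants; 3 biological replicates.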

[4] = variants of: B2; assay: sfGFP reporter fluorescence (15 h) (µM FITC); higher = stronger transcriptional activation; details: library round: Round 3b
Experimental: as §2

Variant	sfGFP reporter fluorescence [1]	sfGFP reporter fluorescence ([2]; ligand: 1 µM Pb)	sfGFP reporter fluorescence ([2]; ligand: 30 µM Zn)	sfGFP reporter fluorescence [3]	sfGFP reporter fluorescence ([4]; ligand: 1 µM Pb)	sfGFP reporter fluorescence ([4]; ligand: 30 µM Zn)
D131Y	0.05919 ± 0.00026	0.0815 ± 0.0029	0.806 ± 0.01	–	–	–
D131G	0.0566 ± 0.00078	0.0991 ± 0.0034	0.604 ± 0.15	–	–	–
D131W	0.05699 ± 0.00026	0.07275 ± 0.00026	0.356 ± 0.046	–	–	–
D131K	0.0706 ± 0.0029	0.127 ± 0.012	1.5 ± 0.34	–	–	–
D131N	0.0654 ± 0.00078	0.103 ± 0.0093	1.13 ± 0.24	–	–	–
D131S	0.0618 ± 0.0034	0.1033 ± 0.00052	0.962 ± 0.087	–	–	–
D131T	0.06267 ± 0.00052	0.0914 ± 0.012	0.747 ± 0.23	–	–	–
D131H	0.0621 ± 0.0013	0.0957 ± 0.0026	0.996 ± 0.034	–	–	–
D131R	0.0733 ± 0.00052	0.17 ± 0.022	1.65 ± 0.29	–	–	–
D131A	0.0691 ± 0.00078	0.1098 ± 0.00078	1.141 ± 0.0013	–	–	–
D131F	0.0596 ± 0.0013	0.0821 ± 0.0057	0.723 ± 0.048	–	–	–
T139A	0.0616 ± 0.0015	0.0737 ± 0.0036	0.7601 ± 0.0031	–	–	–
G128D	0.0603 ± 0.0023	0.0607 ± 0.00078	0.108 ± 0.0029	–	–	–
G128W	0.07165 ± 0.00026	0.248 ± 0.028	1.39 ± 0.098	–	–	–
G128M	0.105 ± 0.0062	0.311 ± 0.025	3.04 ± 0.38	–	–	–
G128N	0.0614 ± 0.0023	0.0704 ± 0.0042	0.875 ± 0.093	–	–	–
G128Q	0.06982 ± 0.00026	0.117 ± 0.0026	2.05 ± 0.43	–	–	–
G128H	0.0608 ± 0.0021	0.0848 ± 0.0034	0.25 ± 0.012	–	–	–
G128L	0.0715 ± 0.0031	0.203 ± 0.03	2.04 ± 0.21	–	–	–
G128E	0.0599 ± 0.00078	0.0713 ± 0.0013	0.535 ± 0.051	–	–	–
G128Y	0.0755	0.203 ± 0.018	1.37 ± 0.067	–	–	–
G128A	0.09694 ± 0.00026	0.211 ± 0.0065	2.53 ± 0.17	–	–	–
G128F	0.0671 ± 0.0047	0.199 ± 0.023	1.2 ± 0.12	–	–	–

Variant	sfGFP reporter fluorescence [1]	sfGFP reporter fluorescence ([2]; ligand: 1 µM Pb)	sfGFP reporter fluorescence ([2]; ligand: 30 µM Zn)	sfGFP reporter fluorescence [3]	sfGFP reporter fluorescence ([4]; ligand: 1 µM Pb)	sfGFP reporter fluorescence ([4]; ligand: 30 µM Zn)
G128T	0.0647 ± 0.0018	0.0885 ± 0.014	1.21 ± 0.22	–	–	–
G128K	0.122 ± 0.0031	0.192 ± 0.007	3.05 ± 0.22	–	–	–
G128S	0.0649 ± 0.0036	0.0902 ± 0.0083	1.3 ± 0.14	–	–	–
G128C	0.0629 ± 0.0018	0.0964 ± 0.0036	0.16 ± 0.008	–	–	–
G128R	0.161 ± 0.007	0.316 ± 0.038	3.05 ± 0.31	–	–	–
G128V	0.0647 ± 0.00078	0.131 ± 0.011	1.54 ± 0.16	–	–	–
G128I	0.066 ± 0.0021	0.183 ± 0.015	1.68 ± 0.19	–	–	–
G128P	0.05498 ± 0.00052	0.0568 ± 0.001	0.0535 ± 0.001	–	–	–
T136A	0.0601 ± 0.001	0.0696 ± 0.0031	0.668 ± 0.013	–	–	–
C132A	0.0695 ± 0.0023	0.0832 ± 0.0073	1.63 ± 0.043	–	–	–
H142A	0.0614 ± 0.0034	0.0718 ± 0.001	0.728 ± 0.32	–	–	–
S144A	0.0586 ± 0.0036	0.0588 ± 0.0023	0.493 ± 0.16	–	–	–
L129I	0.0535 ± 0.0021	0.0592 ± 0.0013	0.163 ± 0.012	–	–	–
L129R	0.0588 ± 0.00078	0.05901 ± 0.00052	0.0557	–	–	–
L129Q	0.0588 ± 0.0018	0.0574 ± 0.0013	0.05406 ± 0.00026	–	–	–
L129W	0.0572 ± 0.0026	0.06047 ± 0.00052	0.05717 ± 0.00052	–	–	–
L129T	0.05827 ± 0.00052	0.0581 ± 0.00078	0.055 ± 0.0021	–	–	–
L129V	0.0557 ± 0.001	0.05717 ± 0.00052	0.05351 ± 0.00052	–	–	–
L129H	0.0586 ± 0.0015	0.0586 ± 0.0021	0.0583 ± 0.0015	–	–	–
L129D	0.0588 ± 0.0013	0.05992 ± 0.00026	0.055 ± 0.001	–	–	–
L129A	0.0572 ± 0.0021	0.0561 ± 0.001	0.0574 ± 0.0018	–	–	–
L129N	0.0586 ± 0.0015	0.05827 ± 0.00052	0.0535 ± 0.0036	–	–	–
L129C	0.0561 ± 0.0015	0.05791 ± 0.00052	0.05443 ± 0.00026	–	–	–

Variant	sfGFP reporter fluorescence [1]	sfGFP reporter fluorescence ([2]; ligand: 1 µM Pb)	sfGFP reporter fluorescence ([2]; ligand: 30 µM Zn)	sfGFP reporter fluorescence [3]	sfGFP reporter fluorescence ([4]; ligand: 1 µM Pb)	sfGFP reporter fluorescence ([4]; ligand: 30 µM Zn)
L129M	0.0577 ± 0.00078	0.05901 ± 0.00052	0.0788 ± 0.0047	–	–	–
L129F	0.0559 ± 0.0013	0.0581 ± 0.00078	0.0564 ± 0.001	–	–	–
L129E	0.0581 ± 0.0013	0.0597 ± 0.0021	0.0546 ± 0.0015	–	–	–
L129K	0.0581 ± 0.00078	0.059 ± 0.0021	0.05662 ± 0.00026	–	–	–
L129S	0.0577 ± 0.0013	0.05901 ± 0.00052	0.0563 ± 0.00078	–	–	–
L129G	0.0526 ± 0.00078	0.0542 ± 0.001	0.0509 ± 0.0021	–	–	–
L129P	0.05387 ± 0.00052	0.055 ± 0.0036	0.0491 ± 0.0026	–	–	–
L129Y	0.057 ± 0.0018	0.05901 ± 0.00052	0.05626 ± 0.00026	–	–	–
G138A	0.0597 ± 0.001	0.0724 ± 0.0018	0.697 ± 0.17	–	–	–
D145A	0.0599 ± 0.0013	0.0702 ± 0.0039	0.56 ± 0.036	–	–	–
DFATHT	–	–	–	0.0408 ± 0.0051	0.0491 ± 0.0032	0.0448 ± 0.0049
DFATHR	–	–	–	0.0436 ± 0.0022	0.053 ± 0.0037	0.0482 ± 0.0037
DFAKAT	–	–	–	0.0421 ± 0.0041	0.0502 ± 0.0044	0.04614 ± 0.00019
DFAKAR	–	–	–	0.0429 ± 0.0064	0.0535 ± 0.005	0.0435 ± 0.0051
KFAKAT	–	–	–	0.0569 ± 0.0013	0.564 ± 0.039	0.0878 ± 0.0047
KFAKAP	–	–	–	0.0577 ± 0.0042	0.495 ± 0.031	0.073 ± 0.0081
KFAKAR	–	–	–	0.0579 ± 0.0044	0.663 ± 0.0095	0.0902 ± 0.0064
KFAKET	–	–	–	0.0549 ± 0.0049	0.413 ± 0.019	0.0675 ± 0.0044
KFAKER	–	–	–	0.0536 ± 0.0034	0.438 ± 0.026	0.0631 ± 0.0086
KFAKEP	–	–	–	0.0525 ± 0.0023	0.414 ± 0.015	0.0724 ± 0.0068
DFAVAT	–	–	–	0.0442 ± 0.0011	0.0558 ± 0.0015	0.0449 ± 0.0022
DFAVAR	–	–	–	0.0466 ± 0.0033	0.0575 ± 0.0018	0.0492 ± 0.0035
DFAVAP	–	–	–	0.0435 ± 0.0045	0.0535 ± 0.0046	0.0484 ± 0.0012

Variant	sfGFP reporter fluorescence [1]	sfGFP reporter fluorescence ([2]; ligand: 1 µM Pb)	sfGFP reporter fluorescence ([2]; ligand: 30 µM Zn)	sfGFP reporter fluorescence [3]	sfGFP reporter fluorescence ([4]; ligand: 1 µM Pb)	sfGFP reporter fluorescence ([4]; ligand: 30 µM Zn)
KFAKHR	–	–	–	0.0685 ± 0.0035	0.843 ± 0.073	0.33 ± 0.014
KFAKHT	–	–	–	0.0669 ± 0.0082	0.777 ± 0.035	0.299 ± 0.047
KFAVAR	–	–	–	0.0482 ± 0.0037	0.398 ± 0.028	0.0563 ± 0.00097
DFATET	–	–	–	0.0435 ± 0.0019	0.0466 ± 0.0012	0.0451 ± 0.001
DFATEP	–	–	–	0.041 ± 0.0024	0.0428 ± 0.0007	0.0444 ± 0.0036
DFATER	–	–	–	0.044 ± 0.0013	0.0474 ± 0.0018	0.0469 ± 0.0034
KFATAT	–	–	–	0.0465 ± 0.0042	0.455 ± 0.007	0.056 ± 0.0037
KFATAR	–	–	–	0.0492 ± 0.0024	0.462 ± 0.068	0.0554 ± 0.0012
KFATAP	–	–	–	0.0501 ± 0.0052	0.3845 ± 0.0014	0.0524 ± 0.00067
KFATET	–	–	–	0.0469 ± 0.0028	0.404 ± 0.017	0.0606 ± 0.0013
KFATER	–	–	–	0.0457 ± 0.0041	0.594 ± 0.024	0.0571 ± 0.014
KFATEP	–	–	–	0.0465 ± 0.0032	0.442 ± 0.0057	0.0564 ± 0.0029
DFATAP	–	–	–	0.0454 ± 0.0046	0.048 ± 0.0038	0.0454 ± 0.0051
DFATAR	–	–	–	0.0431 ± 0.00051	0.05286 ± 0.00019	0.0448 ± 0.0015
DFATAT	–	–	–	0.0428 ± 0.0034	0.0475 ± 0.0011	0.0455 ± 0.0051
KFATHT	–	–	–	0.0512 ± 0.0033	0.558 ± 0.011	0.137 ± 0.013
KFATHP	–	–	–	0.0523 ± 0.0059	0.476 ± 0.041	0.112 ± 0.011
KFATHR	–	–	–	0.0517 ± 0.0024	0.705 ± 0.055	0.171 ± 0.012
DFAKER	–	–	–	0.044 ± 0.0022	0.0459 ± 0.002	0.0423 ± 0.00089
DFAKET	–	–	–	0.037 ± 0.0032	0.0413 ± 0.00089	0.0436 ± 0.0024
